Results taken from PMC5511170, “Deviation of the typical AAA substrate-threading pore prevents fatal protein degradation in yeast Cdc48” (Scientific Reports, 2017).

T1: GST-Ufd2 (yeast (Saccharomyces cerevisiae), UniProt P54860 1-961)
T1 construct: Ufd2, E4 ubiquitin ligase, yeast, cloned in pGEX6P-1; Cloned in pGEX6P-1; source: E. coli BL21, purified (glutathione-sepharose)
T1 sequence (looked up): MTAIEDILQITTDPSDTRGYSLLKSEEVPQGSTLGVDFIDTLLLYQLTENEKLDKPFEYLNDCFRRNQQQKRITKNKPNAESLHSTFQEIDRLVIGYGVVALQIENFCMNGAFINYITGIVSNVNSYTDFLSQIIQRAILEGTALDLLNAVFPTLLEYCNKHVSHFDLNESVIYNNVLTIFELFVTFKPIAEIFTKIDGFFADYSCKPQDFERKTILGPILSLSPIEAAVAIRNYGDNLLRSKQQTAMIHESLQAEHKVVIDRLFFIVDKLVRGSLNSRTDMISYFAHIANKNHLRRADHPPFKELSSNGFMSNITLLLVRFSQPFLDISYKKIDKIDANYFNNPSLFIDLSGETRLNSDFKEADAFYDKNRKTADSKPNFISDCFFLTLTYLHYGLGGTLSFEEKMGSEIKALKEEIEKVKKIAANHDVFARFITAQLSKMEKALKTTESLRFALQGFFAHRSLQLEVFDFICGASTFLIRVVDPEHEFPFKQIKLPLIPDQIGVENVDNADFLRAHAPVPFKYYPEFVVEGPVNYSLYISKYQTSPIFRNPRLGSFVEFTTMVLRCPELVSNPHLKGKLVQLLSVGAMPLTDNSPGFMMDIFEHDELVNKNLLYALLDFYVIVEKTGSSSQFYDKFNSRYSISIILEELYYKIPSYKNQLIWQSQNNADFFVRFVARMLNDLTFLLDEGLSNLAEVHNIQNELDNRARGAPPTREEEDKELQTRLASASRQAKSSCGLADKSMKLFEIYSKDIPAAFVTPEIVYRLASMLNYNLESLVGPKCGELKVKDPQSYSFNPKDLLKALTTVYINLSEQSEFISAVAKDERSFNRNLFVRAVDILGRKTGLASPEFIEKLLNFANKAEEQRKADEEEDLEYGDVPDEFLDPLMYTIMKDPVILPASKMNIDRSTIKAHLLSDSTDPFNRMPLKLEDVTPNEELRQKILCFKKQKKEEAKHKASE


Biological target: T1, GST-Ufd2
Test: pull-down; GST-Ufd2 (40 pmol) incubated with 20 pmol Cdc48 in 100 µL 20 mM Tris-HCl pH 7.4, 50 mM NaCl, 1 mM MgCl2, 5 mM β-mercaptoethanol, 20% glycerol, 10 min at 25 °C; then glutathione-sepharose 4B 30 min at room temperature; eluted with glutathione; immunoblot with anti-Cdc48 and anti-GST
Settings: both partners purified

Row | binding result | Binder
1 | binds | wild-type Cdc48 (N-terminally His-tagged) (natural protein, Saccharomyces cerevisiae, UniProt P25694 1-835, looked up, Cdc48, Saccharomyces cerevisiae, wild type, cloned in pET15b; Cloned in pET15b; also called WT; yeast Cdc48) MGEEHKPLLDASGVDPREEDKTATAILRRKKKDNMLLVDDAINDDNSVIAINSNTMDKLELFRGDTVLVKGKKRKDTVLIVLIDDELEDGACRINRVVRNNLRIRLGDLVTIHPCPDIKYATRISVLPIADTIEGITGNLFDVFLKPYFVEAYRPVRKGDHFVVRGGMRQVEFKVVDVEPEEYAVVAQDTIIHWEGEPINREDEENNMNEVGYDDIGGCRKQMAQIREMVELPLRHPQLFKAIGIKPPRGVLMYGPPGTGKTLMARAVANETGAFFFLINGPEVMSKMAGESESNLRKAFEEAEKNAPAIIFIDEIDSIAPKRDKTNGEVERRVVSQLLTLMDGMKARSNVVVIAATNRPNSIDPALRRFGRFDREVDIGIPDATGRLEVLRIHTKNMKLADDVDLEALAAETHGYVGADIASLCSEAAMQQIREKMDLIDLDEDEIDAEVLDSLGVTMDNFRFALGNSNPSALRETVVESVNVTWDDVGGLDEIKEELKETVEYPVLHPDQYTKFGLSPSKGVLFYGPPGTGKTLLAKAVATEVSANFISVKGPELLSMWYGESESNIRDIFDKARAAAPTVVFLDELDSIAKARGGSLGDAGGASDRVVNQLLTEMDGMNAKKNVFVIGATNRPDQIDPAILRPGRLDQLIYVPLPDENARLSILNAQLRKTPLEPGLELTAIAKATQGFSGADLLYIVQRAAKYAIKDSIEAHRQHEAEKEVKVEGEDVEMTDEGAKAEQEPEVDPVPYITKEHFAEAMKTAKRSVSDAELRRYEAYSQQMKASRGQFSNFNFNDAPLGTTATDNANSNNSAPSGAGAAFGSNAEEDDDLYS
2 | binds | Cdc48 M288Y mutant (N-terminally His-tagged) (natural protein, Saccharomyces cerevisiae, UniProt P25694 1-835, looked up, Cdc48, Saccharomyces cerevisiae, with M288Y in the D1 pore loop, cloned in pET15b; Cloned in pET15b) MGEEHKPLLDASGVDPREEDKTATAILRRKKKDNMLLVDDAINDDNSVIAINSNTMDKLELFRGDTVLVKGKKRKDTVLIVLIDDELEDGACRINRVVRNNLRIRLGDLVTIHPCPDIKYATRISVLPIADTIEGITGNLFDVFLKPYFVEAYRPVRKGDHFVVRGGMRQVEFKVVDVEPEEYAVVAQDTIIHWEGEPINREDEENNMNEVGYDDIGGCRKQMAQIREMVELPLRHPQLFKAIGIKPPRGVLMYGPPGTGKTLMARAVANETGAFFFLINGPEVMSKYAGESESNLRKAFEEAEKNAPAIIFIDEIDSIAPKRDKTNGEVERRVVSQLLTLMDGMKARSNVVVIAATNRPNSIDPALRRFGRFDREVDIGIPDATGRLEVLRIHTKNMKLADDVDLEALAAETHGYVGADIASLCSEAAMQQIREKMDLIDLDEDEIDAEVLDSLGVTMDNFRFALGNSNPSALRETVVESVNVTWDDVGGLDEIKEELKETVEYPVLHPDQYTKFGLSPSKGVLFYGPPGTGKTLLAKAVATEVSANFISVKGPELLSMWYGESESNIRDIFDKARAAAPTVVFLDELDSIAKARGGSLGDAGGASDRVVNQLLTEMDGMNAKKNVFVIGATNRPDQIDPAILRPGRLDQLIYVPLPDENARLSILNAQLRKTPLEPGLELTAIAKATQGFSGADLLYIVQRAAKYAIKDSIEAHRQHEAEKEVKVEGEDVEMTDEGAKAEQEPEVDPVPYITKEHFAEAMKTAKRSVSDAELRRYEAYSQQMKASRGQFSNFNFNDAPLGTTATDNANSNNSAPSGAGAAFGSNAEEDDDLYS
